{"source": "the nanobody polyreactivity screen of Harvey et al. (2022)", "test": "yeast display, Sf9 membrane polyspecificity reagent, FACS + sequencing; frameworks hold sequencing errors", "summary_of_the_method": "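Nanobodies came from a synthetic yeast display library in Saccharomyces cerevisiae BJ5465, induced with galactose for 36–48 hours and stained for 1 hour at 4 °C with 10% biotinylated, detergent-solubilized Sf9 membrane reagent. Cells were enriched on streptavidin microbeads and then FACS-sorted, with low and high (top ~1%) gates set on anti-HA fluorescence for expression and streptavidin fluorescence for reagent binding. Each polyreactivity label reflects the gate a clone came from. Genes were amplified by colony PCR, sequenced by MiSeq 2 × 250 and filtered by CDR length.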", "data": [{"sequence": "QVQLVESGGGLVQAGGSLRLSCAASGSTFAGYAMGWYRQAPGKERELVATITYSGGSTYYADSVKGRFTISRDNAKNTVYLQKNSLKPEDTAVYYCAKKASYWWGYEYWGQGTQVTVSS", "values": [{"measurement": "polyreactivity (PSR sort gate)", "value": "low polyreactivity"}]}, {"sequence": "QVQLVESGGGLVQAGGSLRLSCAASGSTFAGYTMGWYRQAPGKERELVAAITGGGSTYYADSVKGRFTISRDNAKNTVYLQMNSLKPEDTAVYYCAARWWTYGIGYGYWGQGTQVTVSS", "values": [{"measurement": "polyreactivity (PSR sort gate)", "value": "high polyreactivity"}]}, {"sequence": "QVQLVESGGGLVQAGGSLRLSCAASGSTFAKNAMGWYRQAPGKERELVAAISSGGSTYYADSVKGRFTISRDNAKNTVYLQMNSLKPEDTAVYYCAASWKQGYRTYGYWGQGTQVTVSS", "values": [{"measurement": "polyreactivity (PSR sort gate)", "value": "high polyreactivity"}]}, {"sequence": "QVQLVESGGGLVQAGGSLRLSCAASGSTFAKNAMGWYSQAPGIDRELVAAISSGGSTYYADSVKGRFTIARDNAKNTVYLQMNSLKPEDTAVYYCAASWIQGYRTYGYWGQGTQVTVSS", "values": [{"measurement": "polyreactivity (PSR sort gate)", "value": "high polyreactivity"}]}, {"sequence": "QVQLVESGGGLVQAGGSLRLSCAASGSTFAKYAMGWYRQAPGKERELVASIRLSGGSTYYADSVKGRFTISRDNAKNTVYLQMNSLNPEDTAVYYCNKQFATFYYGFDYYYWGQGTQVTVSS", "values": [{"measurement": "polyreactivity (PSR sort gate)", "value": "low polyreactivity"}]}, {"sequence": "QVQLVESGGGLVQAGGSLRLSCAASGSTFAKYAMGWYRQAPGKERELVATITDGGSTYYADSVKGRFTISRDNAKNTVYLQMNRMKPEDTAVYYCNAVILYWLYTSYVAGWPYDYWGQGTQVTVSS", "values": [{"measurement": "polyreactivity (PSR sort gate)", "value": "high polyreactivity"}]}, {"sequence": "QVQLVESGGGLVQAGGSLRLSCAASGSTFAKYVMGWYRQAHGKERELVAAISRRGSSTYYADSVKGRFTISRDNAKNTVYLQMNSLKPEDTAVYYCAARFRYSGFEGMDYWGQGTQVTVSS", "values": [{"measurement": "polyreactivity (PSR sort gate)", "value": "high polyreactivity"}]}, {"sequence": "QVQLVESGGGLVQAGGSLRLSCAASGSTFANNAMGWYRQAPGKERELVAAISWSGGSTYYADSVKGRFTISRDNAKNTVYLQMNSLKPEDTAVYYCAADSPRYGGYGYWGQGTKVTVSS", "values": [{"measurement": "polyreactivity (PSR sort gate)", "value": "low polyreactivity"}]}, {"sequence": "QVQLVESGGGLVQAGGSLRLSCAASGSTFANYAMGWYRQAPGKERELVAGISWRGGRTYYADSVKGRFTISRDNAKNTVYLQMNSLKPEDTAVYYCAVVHQTFTGDYWGQGTQVTVSS", "values": [{"measurement": "polyreactivity (PSR sort gate)", "value": "high polyreactivity"}]}, {"sequence": "QVQLVESGGGLVQAGGSLRLSCAASGSTFAPYVMGCYRQAPGKQRELVAAIRFNGGRTHYADSVKGRFTISRDNAKNTVYLQMNSLKPEDTAVYYCAAEQWRRRNYWGQGTQVTVSS", "values": [{"measurement": "polyreactivity (PSR sort gate)", "value": "high polyreactivity"}]}, {"sequence": "QVQLVESGGGLVQAGGSLRLSCAASGSTFAQNAMGWYRQAPGKEREFVAAITGTVGSTYYADSVKGRFTISRDNAKNTVYLQMNSLKPEDTAVYYCNTRGFNGRVYPYDYWGQGTQVTVSS", "values": [{"measurement": "polyreactivity (PSR sort gate)", "value": "low polyreactivity"}]}, {"sequence": "QVQLVESGGGLVQAGGSLRLSCAASGSTFAQNTMGWYRQAPGKERELVATISDGGGSTYYADSVKGRFTISRDIAKNTVYLQMNSLKPEDTAVYYCNTDRFWPSDYWGQGTQVTVSS", "values": [{"measurement": "polyreactivity (PSR sort gate)", "value": "low polyreactivity"}]}, {"sequence": "QVQLVESGGGLVQAGGSLRLSCAASGSTFARNAMGWYRQAPGKERDLVAAITWSGGNTYYADSVKGRFTISRDNAKNTVYLQMNSLKPEDSAVYYCNKATRHHFYYWGQGTQVTVSS", "values": [{"measurement": "polyreactivity (PSR sort gate)", "value": "high polyreactivity"}]}, {"sequence": "QVQLVESGGGLVQAGGSLRLSCAASGSTFARNAMGWYRQAPGKERELVAAITYSGGRTYYADSVKGRFTISRDNAKNTVYLQMNSLKPEDTAVYYCAADIVSSTDYPFDYWGQGTQVTVSS", "values": [{"measurement": "polyreactivity (PSR sort gate)", "value": "low polyreactivity"}]}, {"sequence": "QVQLVESGGGLVQAGGSLRLSCAASGSTFARNVMGWYRHAPGKERELVAAITRSGGSTYYADSVKGRFTISRDNAKNTVYFQMNSLKPEDTAVYYCNRDFRGLAYSDRYDYWGQGTQVTVSS", "values": [{"measurement": "polyreactivity (PSR sort gate)", "value": "low polyreactivity"}]}, {"sequence": "QVQLVESGGGLVQAGGSLRLSCAASGSTFARYAMGWYRQAPGKEREFVAAISASGGRTYYADSVKGRFTISRDNAKNTVYLQMNSLKPEDTAVYYCAVRVYAKYFAKYDYWGQGTQVTVSS", "values": [{"measurement": "polyreactivity (PSR sort gate)", "value": "high polyreactivity"}]}, {"sequence": "QVQLVESGGGLVQAGGSLRLSCAASGSTFARYAMGWYRQAPGKERELVAGISTSGGRTYYADSVKGRFTISRDNAKNTVYLQMNSLKPEDTAVYYCAKALSQTWYDGQYGYWGQGTQVTVSS", "values": [{"measurement": "polyreactivity (PSR sort gate)", "value": "low polyreactivity"}]}]}
